Experiment [1] addresses SMYD2-F184A (human) (UniProt Q9NRG4). The experiment can be described thus: ELISA; inhibition: SMYD2 proteins pre-incubated with varying concentrations of the PARP1 peptide, then added to wells coated with PARP1(518-1014), H3 or H4; four-parameter logistic fit.
Experiment [2] shares this target. Put plainly: ITC; NanoITC SV, 27°C, 25 mM Tris pH 7.5, 50 mM NaCl; 40 μM SMYD2 in the cell, 631 μM PARP1 peptide in the syringe, 16 injections of 15 μL; one-site, two-site and binding polynomial models. Background: In ITC the heat of successive injections is recorded.

SMYD2-F184A (human), sequence (Q9NRG4 whole entry F184A): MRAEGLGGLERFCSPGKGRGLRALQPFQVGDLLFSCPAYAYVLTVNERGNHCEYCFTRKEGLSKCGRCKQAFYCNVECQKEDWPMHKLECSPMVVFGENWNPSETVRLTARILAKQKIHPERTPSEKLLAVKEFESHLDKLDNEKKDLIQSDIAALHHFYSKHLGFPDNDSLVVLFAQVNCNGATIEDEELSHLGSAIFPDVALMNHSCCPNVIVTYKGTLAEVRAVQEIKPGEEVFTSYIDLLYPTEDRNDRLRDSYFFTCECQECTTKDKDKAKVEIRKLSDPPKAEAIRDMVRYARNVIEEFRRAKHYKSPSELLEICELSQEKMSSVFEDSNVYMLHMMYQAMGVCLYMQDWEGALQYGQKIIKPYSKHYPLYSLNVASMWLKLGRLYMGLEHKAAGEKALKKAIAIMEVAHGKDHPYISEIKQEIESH

As to “PARP1 peptide (13-residue synthetic peptide, human PARP1 residues 522-534)”, the IC50 – broadly, the midpoint of a concentration-inhibition curve – with SMYD2-F184A (human) [1] turned out to be 153 nM. For the same substance, the stoichiometry N (commonly the number of molecules, sites or subunits per partner or assembly) with SMYD2-F184A (human) [2] was 1.

Source of the values: doi:10.1101/2024.12.03.626679, “Structure of the SMYD2-PARP1 Complex Reveals Both Productive and Allosteric Modes of Peptide Binding” (bioRxiv, 2024).
